In patent US7534761B1, “Charged peptide-amphiphile solutions and self-assembled peptide nanofiber networks formed therefrom” (North Western University, priority 2002, dated 2009):
Square brackets hold non-standard residues; d marks the D form. Ends that are not written are not given here. * marks the point of attachment. Palmitoyl = CCCCCCCCCCCCCCCC(=O)*; pS = N[C@@H](COP(=O)(O)O)C(=O)O

Key:
[1] = Gelation / self assembly of peptide amphiphile solutions, TEM of bulk gels; format: physicochemical
Method: Synthesis of peptide amphiphile, SEQ ID NO:1, was synthesized with standard Fmoc chemistry on an Applied Biosystems […] automated peptide synthesizer. The peptide was grown from the C terminus to N terminus with the sequence CCCCGGGSS(P)DS(P)D, SEQ ID NO:1, and the N terminus was capped with a 16 carbon fatty acid. The synthesis of the peptide amphiphile, SED ID NO:1, was verified by ESI mass spectroscopy indicating correct molecular weight. […] To confirm the formation of fibers, transmission electron microscopy (TEM) images of these bulk gels were taken and are shown in FIG. 3. Fibers on the order of 5-10 nm in diameter can be seen, as well as globular micelles ranging from 10-15 nm in diameter.

[2] = tested on: MC3T3-E1 mouse calvarial osteoblasts; assay: Growth and differentiation of MC3T3-E1 osteoblasts on self assembled nanofibers coated on glass; format: cell-based
Method: Cell culture preparation includes treating glass coverslips overnight in 100% ethanol. […] of SEQ ID NO:1, was spin-coated at 1500 r.p.m. for 30 seconds onto the treated glass cover slips. Samples were dried under vacuum to promote self-assembly on the glass surface. Samples were then immersed in 10% iodine for 15 minutes to cross-link the assembled PA nanofibers. Cross-linked samples were thoroughly, but gently rinsed by immersion in water 3×. Rinsed slides were dried by vacuum desiccation and placed in a 24-well tissue culture well plate. MC3T3-E1 mouse calvarial osteoblasts were plated at 10,000 cells/coverslip in 1 mL of MEM-a culture medium containing 10% fetal bovine serum, 1% penicillin/streptomycin, 30 mM β-glycerolphosphate, and […] ascorbic acid. The medium was exchanged every 3 days.

[3] = Coassembly of negatively and positively charged peptide amphiphiles; format: physicochemical; settings: 10 mg/mL, mixed with approximately 3 molar equivalents of SEQ ID NO:22
Source text: This example illustrates the self assembly of negatively charged peptide amphiphiles using positively charged peptide amphiphiles, coassembly, to induce nanofiber gel formation. […] Similar approaches may be applied using variations the charged molecules involved.

| Substance | gelation of solution ([1]; 1% and 0.1% solutions, HCl and Ca2+ addition) | globular micelle diameter (TEM) ([1]; bulk gels) | nanofiber diameter (TEM) ([1]; bulk gels) | cell adhesion and spreading on nanofiber-coated glass slides ([2]; MC3T3-E1, 10,000 cells/coverslip, iodine cross-linked nanofibers) | osteoblastic differentiation, mineral by Von Kossa staining ([2]; MC3T3-E1, 17 days of culture) | cell layer on self assembled peptide amphiphile coated glass ([2]; MC3T3-E1, after 12 days (FIG. 4B legend)) | result of coassembly [3] |
| --- | --- | --- | --- | --- | --- | --- | --- |
| C16H31O-CCCCGGGSS(P)DS(P)D (Palmitoyl-CCCCGGGS[pS]D[pS]D; not fully specified (C-terminus); cysteine pairing not given here) [SEQ ID NO 1, peptide amphiphile: alkyl tail C16H31O, structural peptide CCCCGGG, functional peptide SS*DS*D] | found to gel | 10-15 nm | 5-10 nm | adhering and spreading | producing significant mineral | confluent layer |  |
| SEQ ID NO:25: peptide amphiphiles having an SSDSD peptide sequence; negatively charged; possibly the SEQ ID NO:1 amphiphile (also: alkyl tail) |  |  |  |  |  |  | self-supporting PA nanofiber gel |
